From patent publication US20060121535

Experiments:
[1] = biological target: T1, Abl peptide NH2-EAIYAAPFAKKK-COOH (SEQ. ID. NO: 4), acrylic-labeled, photocleavable
T1 chain: EAIYAAPFAKKK

[2] = biological target: GST-Crkl (SH3), P46109
[3] = biological target: GST-Crkl (full length), P46109
[4] = biological target: T2, GST-Crkl (intra SH3), P46109
T2 chain: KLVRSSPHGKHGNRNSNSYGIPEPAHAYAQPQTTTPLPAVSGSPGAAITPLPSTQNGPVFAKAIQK

Sequence of GST-Crkl (SH3), P46109 (P46109 120-303): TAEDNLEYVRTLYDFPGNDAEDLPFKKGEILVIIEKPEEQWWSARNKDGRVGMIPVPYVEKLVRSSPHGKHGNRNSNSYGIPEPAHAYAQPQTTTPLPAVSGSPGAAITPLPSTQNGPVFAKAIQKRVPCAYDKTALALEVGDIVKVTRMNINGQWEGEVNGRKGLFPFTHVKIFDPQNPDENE
Sequence of GST-Crkl (full length), P46109 (P46109 whole entry): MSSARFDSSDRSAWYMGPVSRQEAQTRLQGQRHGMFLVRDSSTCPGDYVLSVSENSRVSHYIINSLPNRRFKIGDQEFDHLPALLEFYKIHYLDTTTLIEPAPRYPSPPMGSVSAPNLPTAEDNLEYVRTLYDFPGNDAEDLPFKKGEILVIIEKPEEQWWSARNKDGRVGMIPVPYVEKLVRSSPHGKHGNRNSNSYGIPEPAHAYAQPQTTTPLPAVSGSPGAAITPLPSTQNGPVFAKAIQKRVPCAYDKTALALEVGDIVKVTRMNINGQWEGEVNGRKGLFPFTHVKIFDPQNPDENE

B1: v-Abl tyrosine kinase (Calbiochem / EMD Biosciences) (protein)
chain: YITPVNSLEKHSWYHGPVSRNAAEYLLSSGINGSFLVRESESSPGQRSISLRYEGRVYHYRINTASDGKLYVSSESRFNTLAELVHHHSTVADGLITTLHYPAPKRNKPTIYGVSPNYDKWEMERTDITMKHKLGGGQYGEVYEGVWKKYSLTVAVKTLKEDTMEVEEFLKEAAVMKEIKHPNLVQLLGVCTREPPFYIITEFMTYGNLLDYLRECNRQEVSAVVLLYMATQISSAMEYLEKKNFIHRDLAARNCLVGENHLVKVADFGLSRLMTGDTYTAHAGAKFPIKWTAPESLAYNKFSIKSDVWAFGVLLWEIATYGMSPYPGIDLSQVYELLEKDYRMERPEGCPEKVYELMRACWQWNPSDRPSFAEIHQAFETMFQESSISD
extent of phosphorylation of the immobilized peptide, MALDI mass spectrometry [1]: the extent of phosphorylation was estimated to be approximately 90% | tyrosine phosphorylation of bead-immobilized substrate, anti-phosphotyrosine Western blot [2]: v-Abl displays tyrosine kinase activity toward GST-Crkl (SH3) and GST-Crkl (intra SH3) in the absence of imatinib | tyrosine phosphorylation of surface spots, ECL film (Example 9) [2]: Qualitative detection of phosphorylated tyrosine for the 833 and 1660 ng spots of the two larger forms of GST-Crkl can be seen | tyrosine phosphorylation on protein array, ECL, 2 h reaction [2]: v-Abl demonstrates a slight preference for the GST-Crkl (SH3) substrate relative to the GST-Crkl (intra SH3) substrate | tyrosine phosphorylation of bead-immobilized substrate, anti-phosphotyrosine Western blot [3]: GST-Crkl (full-length) is not phosphorylated by v-Abl | tyrosine phosphorylation of surface spots, ECL film (Example 9) [3]: Qualitative detection of phosphorylated tyrosine for the 833 and 1660 ng spots of the two larger forms of GST-Crkl can be seen | tyrosine phosphorylation on protein array, ECL [3]: Phosphorylation of GST-Crkl (full-length) is minimal (data not shown) | tyrosine phosphorylation of bead-immobilized substrate, anti-phosphotyrosine Western blot [4]: v-Abl displays tyrosine kinase activity toward GST-Crkl (SH3) and GST-Crkl (intra SH3) in the absence of imatinib | tyrosine phosphorylation on protein array, ECL, 2 h reaction [4]: v-Abl demonstrates a slight preference for the GST-Crkl (SH3) substrate relative to the GST-Crkl (intra SH3) substrate
